In US20230147840A1 (Chugai, published 2023):
Like-named read-outs stand apart in the source and are kept apart here.

T1: Human CD3eg linker (human)
T1 construct: Single-chain soluble construct; also called recombinant human CD3
T1 chain: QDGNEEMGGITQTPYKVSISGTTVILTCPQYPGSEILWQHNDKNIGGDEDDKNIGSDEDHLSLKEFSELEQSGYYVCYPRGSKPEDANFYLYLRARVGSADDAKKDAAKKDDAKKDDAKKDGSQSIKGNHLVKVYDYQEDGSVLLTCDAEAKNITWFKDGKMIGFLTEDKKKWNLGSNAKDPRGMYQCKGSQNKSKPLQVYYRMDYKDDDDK


Legend:
[1] = target: T2, Human CD137 extracellular domain (ECD) (human); assay: SPR Biacore 8K, Ab captured on anti-human Fc, CD137 as analyte, 37 C
T2 construct: also called Human CD137 ECD; recombinant human CD137
Protocol: (§1) Binding affinity of Dual-Ig antibodies to human CD3 were assessed at 25 degrees C. using Biacore 8K instrument (GE Healthcare). Anti-human Fc (GE Healthcare) was immobilized onto all flow cells of a CM4 sensor chip using amine coupling kit (GE Healthcare). Antibodies were captured onto the anti-Fc sensor surfaces, then recombinant human CD3 or CD137 was injected over the flow cell. All antibodies and analytes were prepared in ACES pH 7.4 containing 20 mM ACES, 150 mM NaCl, 0.05% Tween 20, 0.005% NaN₃. Sensor surface was regenerated each cycle with 3M MgCl₂. […] CD137 binding affinity assay was conducted in same condition except assay temperature was set at 37 degrees C.

[2] = target: T1, Human CD3eg linker; assay: SPR Biacore 8K, Ab captured on anti-human Fc, CD3 as analyte, 25 C
Protocol: as §1

[3] = target: T2, Human CD137 extracellular domain (ECD); assay: SPR Biacore 8K, 37 C; reference xGPC3/DualAE05-xSG1350kSG1349hV11
Protocol: as §1
This is caused by faster off rate in FAST-Ig construct. […] This is caused by faster off rate in FAST-Ig construct.

[4] = target: T2, Human CD137 extracellular domain (ECD); assay: SPR Biacore 8K, Ab captured on anti-human Fc, CD137 as analyte, 37 C; remark: listed apart in the source
Protocol: (§2) Binding affinity of Dual-Fab antibodies (Dual-Ig) to human CD3 were assessed at 25 degrees C. using Biacore 8K instrument (GE Healthcare). Anti-human Fc (GE Healthcare) was immobilized onto all flow cells of a CM4 sensor chip using amine coupling kit (GE Healthcare). Antibodies were captured onto the anti-Fc sensor surfaces, then recombinant human CD3 or CD137 was injected over the flow cell. All antibodies and analytes were prepared in ACES pH 7.4 containing 20 mM ACES, 150 mM NaCl, 0.05% Tween 20, 0.005% NaN₃. Sensor surface was regenerated each cycle with 3M MgCl₂. […] CD137 binding affinity assay was conducted in same condition except assay temperature was set at 37 degrees C.

[5] = target: T1, Human CD3eg linker; assay: SPR Biacore 8K, Ab captured on anti-human Fc, CD3 as analyte, 25 C
Protocol: as §2

T2 sequence (chain, as listed by the source limits assumed): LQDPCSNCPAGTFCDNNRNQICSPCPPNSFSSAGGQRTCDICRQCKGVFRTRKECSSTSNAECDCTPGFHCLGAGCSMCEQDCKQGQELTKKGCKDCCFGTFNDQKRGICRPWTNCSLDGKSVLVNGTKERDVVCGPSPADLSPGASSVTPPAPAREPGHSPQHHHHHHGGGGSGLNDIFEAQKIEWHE

Binder	Kd [1] [nM]	koff [1] [s⁻¹]	kon [1] [M⁻¹ s⁻¹]	Kd [2] [nM]	koff [2] [s⁻¹]	kon [2] [M⁻¹ s⁻¹]	fold weaker binding affinity than CrossMab prepared antibodies [3] [fold]	Kd [4] [nM]	koff [4] [s⁻¹]	kon [4] [M⁻¹ s⁻¹]	Kd [5] [nM]	koff [5] [s⁻¹]	kon [5] [M⁻¹ s⁻¹]
H1572L0581 (antibody, V domains shown, Dual-Ig with an Fc; also called DualAE26; dBBDu183H1572/dBBDu072L0581) VH: QVQLVESGGGLVQPGRSLRLSCAASGFKFSNVWFHWVRQAPGKGLEWVAQIKDKYNAYAAYYAPSVKGRFTISRDDSKNSIYLQMNSLKTEDTAVYYCHYVHYASASTLLPAEGVDAWGQGTTVTVSS VL: DIVMTQSPLSLPVTPGEPASISCQPSQEVVHMNRNTYLHWYQQKPGQAPRLLIYKVSNRFPGVPDRFSGSGSGTDFTLKISRVEAEDVGVYYCAQGTSHPFTFGQGTKLEIK								52.1	0.000722	13900	286	0.028	97700
H1644L0939 (antibody, V domains shown, Dual-Ig with an Fc; also called DualAE16; dBBDu183H1644/dBBDu072L0939) VH: QVQLVESGGGLVQPGRSLRLSCAASGFVFSNVWFHWVRQAPGKGLEWVAQIKDYYNAYAAYYAPSVKGRFTISRDDSKNSIYLQMNSLKTEDTAVYYCHYVHYASASTLLPAEGVDAWGQGTTVTVSS VL: DIVMTQSPLSLPVTPGEPASISCQPSQEVVHMNRNTYLHWYQQKPGQAPRLLIYKVSNVFPGVPDRFSGSGSGTDFTLKISRVEAEDVGVYYCAQGTHHPFTFGQGTKLEIK								36.8	0.000444	12100	1450	0.0808	55800

Second part, the binder after the results:

Kd [1] [nM]	koff [1] [s⁻¹]	kon [1] [M⁻¹ s⁻¹]	Kd [2] [nM]	koff [2] [s⁻¹]	kon [2] [M⁻¹ s⁻¹]	fold weaker binding affinity than CrossMab prepared antibodies [3] [fold]	Kd [4] [nM]	koff [4] [s⁻¹]	kon [4] [M⁻¹ s⁻¹]	Kd [5] [nM]	koff [5] [s⁻¹]	kon [5] [M⁻¹ s⁻¹]	Binder
40.5	0.000525	13000	296	0.0275	92900								xGPC3/DualAE05-xSG1350k1349hV11 (bispecific antibody, V domains shown, 1+1 tri-specific, CrossMab format (VH/VL of the GPC3 arm exchanged, charge mutations in CH1/CL of the Dual arm); also called xGPC3/DualAE05-xSG1350kSG1349hV11; AE05 CrossMab) VH 1: QVQLVQSGAEVKKPGASVTVSCKASGYTFTDYEMHWIRQPPGEGLEWIGAIDGPTPDTAYSEKFKGRVTLTADKSTSTAYMELSSLTSEDTAVYYCTRFYSYTYWGQGTLVTVSS VL 1: DIVMTQSPLSLPVTPGEPASISCRSSQPLVHSNRNTYLHWYQQKPGQAPRLLIYKVSNRFSGVPDRFSGSGSGTDFTLKISRVEAEDVGVYYCGQGTQVPYTFGQGTKLEIK VH 2: QVQLVESGGGLVQPGRSLRLSCAASGFKFSNVWFHWVRQAPGKGLEWVAQIKDYYNAYAAYYAPSVKGRFTISRDDSKNSIYLQMNSLKTEDTAVYYCHYVHYASASTLLPAEGVDAWGQGTTVTVSS VL 2: DIVMTQSPLSLPVTPGEPASISCQPSQEVVHMNRNTYLHWYQQKPGQAPRLLIYKVSNRFPGVPDRFSGSGSGTDFTLKISRVEAEDVGVYYCAQGTSHPFTFGQGTKLEIK
79.5	0.00102	12800	314	0.0278	88500	~2							GPC3/DualAE05-SG1363k1364hV11 (bispecific antibody, V domains shown, 1+1 tri-specific, FAST-Ig format) VH 1: QVQLVQSGAEVKKPGASVTVSCKASGYTFTDYEMHWIRQPPGEGLEWIGAIDGPTPDTAYSEKFKGRVTLTADKSTSTAYMELSSLTSEDTAVYYCTRFYSYTYWGQGTLVTVSS VL 1: DIVMTQSPLSLPVTPGEPASISCRSSQPLVHSNRNTYLHWYQQKPGQAPRLLIYKVSNRFSGVPDRFSGSGSGTDFTLKISRVEAEDVGVYYCGQGTQVPYTFGQGTKLEIK VH 2: QVQLVESGGGLVQPGRSLRLSCAASGFKFSNVWFHWVRQAPGKGLEWVAQIKDYYNAYAAYYAPSVKGRFTISRDDSKNSIYLQMNSLKTEDTAVYYCHYVHYASASTLLPAEGVDAWGQGTTVTVSS VL 2: DIVMTQSPLSLPVTPGEPASISCQPSQEVVHMNRNTYLHWYQQKPGQAPRLLIYKVSNRFPGVPDRFSGSGSGTDFTLKISRVEAEDVGVYYCAQGTSHPFTFGQGTKLEIK
54.7	0.000745	13600	282	0.0263	93400	~2							GPC3/DualAE05-SG1364k1363hV11 (bispecific antibody, V domains shown, 1+1 tri-specific, FAST-Ig format; Same variable regions as m28, different constant-region charge mutations; Full chains not tied by name) VH 1: QVQLVQSGAEVKKPGASVTVSCKASGYTFTDYEMHWIRQPPGEGLEWIGAIDGPTPDTAYSEKFKGRVTLTADKSTSTAYMELSSLTSEDTAVYYCTRFYSYTYWGQGTLVTVSS VL 1: DIVMTQSPLSLPVTPGEPASISCRSSQPLVHSNRNTYLHWYQQKPGQAPRLLIYKVSNRFSGVPDRFSGSGSGTDFTLKISRVEAEDVGVYYCGQGTQVPYTFGQGTKLEIK VH 2: QVQLVESGGGLVQPGRSLRLSCAASGFKFSNVWFHWVRQAPGKGLEWVAQIKDYYNAYAAYYAPSVKGRFTISRDDSKNSIYLQMNSLKTEDTAVYYCHYVHYASASTLLPAEGVDAWGQGTTVTVSS VL 2: DIVMTQSPLSLPVTPGEPASISCQPSQEVVHMNRNTYLHWYQQKPGQAPRLLIYKVSNRFPGVPDRFSGSGSGTDFTLKISRVEAEDVGVYYCAQGTSHPFTFGQGTKLEIK
